These results are taken from paper PMC5659210, “Extending the biocatalytic scope of regiocomplementary flavin-dependent halogenase enzymes” (Chemical Science, 2015).

Common to all, as to assay: Michaelis-Menten chlorination assay, HPLC, Fre-coupled
Common to all, as to type: biochemical, Pseudomonas fluorescens
Settings in all cases: Fre in excess, 30 °C

Substrate in data set [1]: N[C@@H](Cc1c[nH]c2ccccc12)C(=O)O
From the text:
(§1) Michaelis-Menten chlorination assay, HPLC, Fre-coupled on PrnA

Substrate in data set [2]: NC(=O)c1ccccc1N
Description: as §1

Substrate in data set [3]: Nc1ccccc1C(=O)C[C@H](N)C(=O)O
Description: as §1

Substrate in data set [4]: Nc1ccccc1C(=O)O
Description: as §1

B1: PrnA (Pseudomonas fluorescens) (protein)
chain: MNKPIKNIVIVGGGTAGWMAASYLVRALQQQANITLIESAAIPRIGVGEATIPSLQKVFFDFLGIPEREWMPQVNGAFKAAIKFVNWRKSPDPSRDDHFYHLFGNVPNCDGVPLTHYWLRKREQGFQQPMEYACYPQPGALDGKLAPCLSDGTRQMSHAWHFDAHLVADFLKRWAVERGVNRVVDEVVDVRLNNRGYISNLLTKEGRTLEADLFIDCSGMRGLLINQALKEPFIDMSDYLLCDSAVASAVPNDDARDGVEPYTSSIAMNSGWTWKIPMLGRFGSGYVFSSHFTSRDQATADFLKLWGLSDNQPLNQIKFRVGRNKRAWVNNCVSIGLSSCFLEPLESTGIYFIYAALYQLVKHFPDTSFDPRLSDAFNAEIVHMFDDCRDFVQAHYFTTSRDDTPFWLANRHDLRLSDAIKEKVQRYKAGLPLTTTSFDDSTYYETFDYEFKNFWLNGNYYCIFAGLGMLPDRSLPLLQHRPESIEKAEAMFASIRREAERLRTSLPTNYDYLRSLRDGDAGLSRGQRGPKLAAQESL
notes: full-length, pET28a (NdeI/NotI), expressed in E. coli Arctic Express, HisTrap purified
On to B1, for which the Michaelis-Menten constant (Km) (as a rule, the concentration of substrate that gives half-maximal velocity) in data set [1] was found to be 0.7 ± 0.1 µM; in data set [2], 3267 ± 491 µM; in data set [3], 19.0 ± 2.2 µM; in data set [4], 3161 ± 986 µM. The kcat (commonly the maximal rate divided by the concentration of active sites) was determined as 0.0183 ± 0.000833 s⁻¹ in data set [1], 0.035 ± 0.00167 s⁻¹ in data set [2], 0.0617 ± 0.00167 s⁻¹ in data set [3] and 0.0085 ± 0.00117 s⁻¹ in data set [4]. In addition, the kcat/Km (in general, the second-order rate constant that governs catalysis at low substrate concentration) was 28300 ± 3330 M⁻¹ s⁻¹ in data set [1], 11.7 ± 1.67 M⁻¹ s⁻¹ in data set [2], 3330 ± 167 M⁻¹ s⁻¹ in data set [3] and 2.67 ± 0.833 M⁻¹ s⁻¹ in data set [4].
